This is an account of results in patent US20250277059A1, “ANTIBODY USED TO TREAT CORONAVIRUS INFECTION” (priority 2022, published 2025).

As a reminder, the Kd is the equilibrium constant for the complex coming apart. What is called koff is the first-order rate constant of dissociation. For orientation: kon means the second-order rate constant of association.

Assay [1] concerns the target T1, Human TMPRSS2 recombinant protein, extracellular region (N-terminal His tag, C-terminal Strep-tag II) (human, UniProt O15393 106-492).
T1 construct: also called Human TMPRSS2 recombinant proteins; extracellular region of human TMPRSS2
Nature of the assay: SPR (BIACore).

The target in assay [2] is T2, Human TMPRSS2 expressed on cells (human, UniProt O15393 1-492).
T2 construct: also called TMPRSS2 expressing cells; Daudi-TMPRSS2 transfectant
T2 sequence (O15393 whole entry): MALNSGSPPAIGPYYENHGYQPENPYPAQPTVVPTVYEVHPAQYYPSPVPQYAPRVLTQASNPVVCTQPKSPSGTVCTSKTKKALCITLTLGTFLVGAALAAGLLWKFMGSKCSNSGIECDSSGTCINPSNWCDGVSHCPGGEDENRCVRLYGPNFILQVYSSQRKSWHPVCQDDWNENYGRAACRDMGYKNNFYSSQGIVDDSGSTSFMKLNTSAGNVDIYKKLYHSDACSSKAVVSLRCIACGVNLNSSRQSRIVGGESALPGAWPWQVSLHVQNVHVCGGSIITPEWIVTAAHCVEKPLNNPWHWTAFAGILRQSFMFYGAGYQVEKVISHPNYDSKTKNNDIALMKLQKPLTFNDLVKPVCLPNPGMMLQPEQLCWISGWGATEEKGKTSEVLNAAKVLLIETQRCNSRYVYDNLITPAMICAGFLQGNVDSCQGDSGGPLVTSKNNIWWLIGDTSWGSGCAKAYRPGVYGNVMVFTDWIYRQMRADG

Assay [3] addresses T1, Human TMPRSS2 recombinant protein, …. Briefly: SPR (BIAcore); rounded repeat of Table 1.
The target in assay [4] is TMPRSS-11F (human, UniProt Q6ZWK6). Nature of the assay: ELISA, Strep-tagged protein on streptavidin plate. For orientation: An ELISA detects its analyte on a solid surface through an enzyme-linked reagent.
Sequence of TMPRSS-11F (Q6ZWK6 54-438 limits assumed): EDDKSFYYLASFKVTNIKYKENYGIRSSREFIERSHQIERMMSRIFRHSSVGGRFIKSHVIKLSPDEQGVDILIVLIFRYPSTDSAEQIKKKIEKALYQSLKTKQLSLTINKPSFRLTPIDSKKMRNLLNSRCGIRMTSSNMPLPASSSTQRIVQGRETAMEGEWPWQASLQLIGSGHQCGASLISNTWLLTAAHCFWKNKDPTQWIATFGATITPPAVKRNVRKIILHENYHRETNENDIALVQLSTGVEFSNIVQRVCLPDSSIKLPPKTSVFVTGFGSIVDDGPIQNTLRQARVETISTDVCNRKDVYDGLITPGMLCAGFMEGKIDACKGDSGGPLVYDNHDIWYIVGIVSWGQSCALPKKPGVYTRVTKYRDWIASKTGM
The target of assay [5] is T3, TMPRSS-11E (human, UniProt Q9UL52).
T3 sequence (single chain, looked up): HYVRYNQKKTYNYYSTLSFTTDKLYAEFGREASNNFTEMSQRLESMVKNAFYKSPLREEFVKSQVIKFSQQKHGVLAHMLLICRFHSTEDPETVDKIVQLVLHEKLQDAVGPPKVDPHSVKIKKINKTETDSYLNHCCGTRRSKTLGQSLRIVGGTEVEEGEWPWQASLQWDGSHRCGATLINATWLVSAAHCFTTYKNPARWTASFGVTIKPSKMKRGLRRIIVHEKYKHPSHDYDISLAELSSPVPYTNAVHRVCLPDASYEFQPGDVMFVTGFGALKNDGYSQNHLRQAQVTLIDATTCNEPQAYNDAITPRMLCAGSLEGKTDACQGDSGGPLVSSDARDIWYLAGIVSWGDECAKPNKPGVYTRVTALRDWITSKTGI
Nature of the assay: ELISA, Strep-tagged protein on streptavidin plate.

The target of assay [6] is T4, TMPRSS-13 (human, UniProt Q9BYE2).
T4 sequence (single chain, looked up): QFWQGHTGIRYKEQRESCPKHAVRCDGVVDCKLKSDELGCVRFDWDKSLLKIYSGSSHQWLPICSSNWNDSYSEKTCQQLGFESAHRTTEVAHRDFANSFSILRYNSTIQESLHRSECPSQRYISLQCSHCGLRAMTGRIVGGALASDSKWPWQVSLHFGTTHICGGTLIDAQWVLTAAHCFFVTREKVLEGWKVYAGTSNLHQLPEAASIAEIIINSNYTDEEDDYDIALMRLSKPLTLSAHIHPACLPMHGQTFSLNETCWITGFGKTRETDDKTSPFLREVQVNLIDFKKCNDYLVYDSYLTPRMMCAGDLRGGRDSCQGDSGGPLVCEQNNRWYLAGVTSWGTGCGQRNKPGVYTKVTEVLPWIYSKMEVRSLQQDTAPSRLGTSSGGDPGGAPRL
Briefly: ELISA, Strep-tagged protein on streptavidin plate.

The target of assay [7] is T5, TMPRSS-11D (human, UniProt O60235).
T5 sequence (single chain, looked up): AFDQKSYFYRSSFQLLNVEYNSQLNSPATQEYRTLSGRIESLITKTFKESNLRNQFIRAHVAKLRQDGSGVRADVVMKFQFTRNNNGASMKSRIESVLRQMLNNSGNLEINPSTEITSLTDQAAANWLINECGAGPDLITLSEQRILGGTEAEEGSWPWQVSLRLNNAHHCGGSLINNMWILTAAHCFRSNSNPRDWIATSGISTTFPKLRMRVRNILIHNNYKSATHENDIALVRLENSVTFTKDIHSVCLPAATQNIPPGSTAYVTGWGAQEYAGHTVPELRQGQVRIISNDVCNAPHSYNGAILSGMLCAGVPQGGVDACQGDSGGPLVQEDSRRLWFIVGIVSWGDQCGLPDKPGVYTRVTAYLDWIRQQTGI
Nature of the assay: ELISA, Strep-tagged protein on streptavidin plate.

In assay [8] the target is T1, Human TMPRSS2 recombinant protein, …. Briefly: SPR (BIAcore), captured mAb, soluble human TMPRSS2 extracellular region. Background: In SPR one partner is held on a chip, and binding of the other changes the refractive index at the surface.
For assay [9], the target named is T6, human TMPRSS2 (Homo sapiens, UniProt O15393). Nature of the assay: BIACore binding assay of anti-TMPRSS2 antibodies. As to conditions: Table 1, mouse mAbs, 25° C.
Target sequence in this assay (O15393 106-492 limits assumed): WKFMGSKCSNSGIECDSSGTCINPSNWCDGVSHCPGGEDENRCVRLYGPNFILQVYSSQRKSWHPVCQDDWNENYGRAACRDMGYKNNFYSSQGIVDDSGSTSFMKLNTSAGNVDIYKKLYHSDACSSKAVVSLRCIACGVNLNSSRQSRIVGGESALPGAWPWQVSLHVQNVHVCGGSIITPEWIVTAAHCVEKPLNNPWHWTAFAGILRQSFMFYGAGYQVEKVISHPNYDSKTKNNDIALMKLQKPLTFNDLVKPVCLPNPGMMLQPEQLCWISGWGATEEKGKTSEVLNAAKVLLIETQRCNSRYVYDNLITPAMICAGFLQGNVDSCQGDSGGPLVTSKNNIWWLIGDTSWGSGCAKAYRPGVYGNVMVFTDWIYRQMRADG
The subject of assay [10] is TMPRSS2 of non-human animal species. Type of assay: binding. As to conditions: Table 3; species whose TMPRSS2 is bound.
The target of assay [11] is T6, human TMPRSS2. Nature of the assay: Competitive inhibition between anti-TMPRSS2 mAbs (flow cytometry). As to conditions: FIG. 3C. It is filed as binding.
Target sequence in this assay (O15393 whole entry): as the sequence (O15393 whole entry) above

Numbering of substitutions follows the chain as printed. Names may count otherwise.

T1 sequence (O15393 other isoform, or with tags, fused parts or gaps limits assumed): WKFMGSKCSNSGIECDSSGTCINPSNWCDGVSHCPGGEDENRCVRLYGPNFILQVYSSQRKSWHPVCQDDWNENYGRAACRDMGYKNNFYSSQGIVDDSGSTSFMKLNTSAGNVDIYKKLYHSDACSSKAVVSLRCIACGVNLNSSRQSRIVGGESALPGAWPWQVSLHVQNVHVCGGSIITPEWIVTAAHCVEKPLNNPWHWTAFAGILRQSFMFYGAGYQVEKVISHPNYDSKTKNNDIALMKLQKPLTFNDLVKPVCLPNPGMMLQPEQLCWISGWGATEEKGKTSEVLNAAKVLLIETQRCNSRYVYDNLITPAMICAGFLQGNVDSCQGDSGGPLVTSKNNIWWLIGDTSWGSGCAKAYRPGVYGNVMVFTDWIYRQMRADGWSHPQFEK

B1: humanized 2228-15 IgG4 (S108P) prototype #1 (antibody, V domains shown)
VH: QVQLVQSGAEVKKPGASVKVSCKASGYTFTDYYINWVRQAPGQGLEWMGWIFPGSGSSYYNAIFKGRVTMTRDTSISTAYMELSRLRSDDTAVYYCARGDFGNFGGFFTYWGQGTLVTVSS
VL: DVVMTQSPLSLPVTLGQPASISCRASKSVSTSGYSFMHWFQQRPGQSPRRLIYLASNLESGVPDRFSGSGSGTDFTLKISRVEAEDVGVYYCQHSRELPLTFGGGTKVEIK
notes: also called humanized #1; hu #1
Turning to B1, in assay [1], the Kd was found to be 12.3 nM, the koff came to 0.0641 s⁻¹ and the kon was determined as 5.22e+06 M⁻¹ s⁻¹. The “APC median at 3 µg/ml” value in assay [2] amounted to 579.

B2: humanized 2228-15 IgG4 (S108P) prototype #3 (antibody, V domains shown)
VH: EIQLVQSGAEVKKPGSSVKVSCKASGYTFTDYYINWMRQAPGQGLEWIGWIFPGSGSSYYNAIFKGRATLTVDTSTNTAYMELSSLRSEDTAFYFCARGDFGNFGGFFTYWGQGTLVTVSS
VL: B1 VL
notes: also called humanized #3; hu #3
Turning to B2, in assay [1], the Kd came out at 0.938 nM, the koff was 0.000774 s⁻¹ and the kon stood at 825000 M⁻¹ s⁻¹. In [2], the “APC median at 3 µg/ml” value worked out at 862.

B3: 2228_15 antibody (antibody, V domains shown)
VH: QVQLQQSGPELVKPGTSVKISCKASGYTFTDYYINWVKQRPGQGLEWIGWIFPGSGSSYYNAIFKGKATLTVDTSSNTAHMSLSSLTSDDSAVYFCARGDFGNFGGFFTYWGQGTLVTVSA
VL: DVVVTQSPASLAVSLGQRATISCRASKSVSTSGYSFMHWYQQKPGQPPKLLIYLASNLESGVPARFSGSGSGTDFILNIHPVEEEDAATYYCQHSRELPLTFGAGTKLELK
As to B3, the Kd in assay [3] was determined as 8.4 nM; in assay [8], 8.41 nM. Also, the binding result in assay [4], in [5], in [6] and in [7] was “no binding (tested: 10 µg/mL)” throughout.

B4: 1831_15: mouse anti-human TMPRSS2 monoclonal antibody, IgG2b κ; VH SEQ ID NO: 98, VL SEQ ID NO: 99 (antibody, V domains shown)
VH: QVQLQQPGAELVKPGASVKLSCKASGYSFTTYWMHWVRQRPGQGLEWIGIIHPNSGTTNYNEKFKSKASLTVDKSSSTAYMQLSSLTSEDSAVYYCARLLWDYFDYWGQGTTLTVSS
VL: DIVMSQSPSSLAVSAGEKVTMSCKSSQSLLNSRTRKNFLAWYQQKPGQSPKLLIYWASTRESGVPDRFTGSGSGTDFTLTISSVQAEDLAVYYCKQSYNLYTFGGGTKLEIK
modifications: mouse IgG2b kappa constant regions; 1831_15 VH; 1831_15 VL
For B4, in assay [9], the “ka” value was found to be 563000 M⁻¹ s⁻¹ and the “kd” value is 0.000236 s⁻¹. For the same molecule, the Cross-reactivity result in assay [10] is reported as “Cynomolgus monkey”.

B5: humanized 752-1 IgG4 (S108P) prototype #3 (antibody, V domains shown)
VH: QVQLQQSGTGLARPGASVKLSCKASGYTFTSCGISWVTQRAGQGLEWIGEIYPRGGNTYYNEKFKGKATLTADKSSSSAYMELRGLTAEDSAVYFCARENGNYDPLFAYWGQGTTLTVSS
VL: DIQMTQSPSSLSASVGDRVTITCKASQDINKYIAWYQQKPGKAPKLLIYYTSTLQPGVPSRFSGSGSGTDFTFTISSLQPEDIATYYCLQYYNLWTFGGGTKVEIK
notes: as for B2
B5: in assay [1], the Kd is 2.11 nM, the koff stood at 0.00469 s⁻¹ and the kon was determined as 2.22e+06 M⁻¹ s⁻¹. Further, the “APC median at 3 µg/ml” value in assay [2] is 1560.

B6: 752_1 antibody (antibody, V domains shown)
VH: B5 VH with T9A, G10E, T38K, A41T, S78T, G85S, A88S, T115L, L116V, S120A
VL: DIQMTQSPSSLSASLGGKVTITCKASQDINKYIAWYQHKPGKGPRLLIHYTSTLQPGIPSRFSGSGSGRDYSFSIYNLEPEDIATYYCLQYYNLWTFGGGTKLEIK
As for B6, the binding result in [4], in assay [5], in [6] and in assay [7] was “no binding (tested: 10 µg/mL)” throughout.

B7: humanized 752-1 IgG4 (S108P) prototype #4 (antibody, V domains shown)
VH: B5 VH
VL: B5 VL with Y49H
notes: also called humanized #4; hu #4
Turning to B7, in assay [1], the Kd was determined as 2.44 nM, the koff is 0.00611 s⁻¹ and the kon amounted to 2.5e+06 M⁻¹ s⁻¹. Besides, the “APC median at 3 µg/ml” value in assay [2] was determined as 1650.

B8: humanized 2228-15 IgG4 (S108P) prototype #4 (antibody, V domains shown)
VH: B2 VH
VL: DIVMTQSPDSLAVSLGERATINCRASKSVSTSGYSFMHWYQQKPGQPPKLLIYLASNLESGVPDRFSGSGSGTDFTLTIRPLQAEDVAVYYCQHSRELPLTFGQGTKLEIK
notes: as for B7
Take B8: in [1], the koff turned out to be 0.0001 s⁻¹ and the kon is 1.44e+06 M⁻¹ s⁻¹. The “APC median at 3 µg/ml” value in assay [2] is 1990.

B9: 2114_16: mouse anti-human TMPRSS2 monoclonal antibody, IgG2c λ; VH SEQ ID NO: 106, VL SEQ ID NO: 107 (antibody, V domains shown)
VH: EVQLQQSGPELVKPGASVKISCKASGYTFTDYYMNWVKRRHGKSLEWIGNINPNNGGTSYNQKFKGKATLTVDKSSSTAYMELRSLTSEDSVVYYCAREGDLFPFAYWGQGTLVTVSA
VL: QAVVTQESALTTSPGETVTLTCRSSIGTVTTSNFANWVQEKPDHLFTGLIGASNNRAPGVPARFSGSLIGDKAALTITGAQTEDEAIYFCALWFSNHWVFGGGTKLTVL
modifications: mouse IgG2c lambda constant regions; 2114_16 VH; 2114_16 VL
As to B9, in [9], the “ka” value stood at 570000 M⁻¹ s⁻¹ and the “kd” value was determined as 0.000591 s⁻¹. Besides, the “competition with 1831_15 antibody for binding to human TMPRSS2” value in assay [11] was “weakly competed”.
